In article PMC6425953 (Cell reports, 2019):

B1: GST-Rng10(751–1,038) (domain or fragment)
chain: SNSKAPAIEETTTTKVEVVAAHDAVSISSNSSTHKSHSEPLNRDELEVAALSRGSLPEPPKPNKQIVVQEEDQRDTLSLKTSTTGLSSHSKSAENNSTQQSTTSPSINSGASADAVSSGISKKADNSETNLNYFATLDAFVKSPLMSFDGLGELGSTDQRYNFFNQKIQEYSAYDSGLDNWIQFCLEKDGEAPKEAPPPPRSEPVSTTTKLAKRITQPSLSPARSTVTITHNIATEAKKKSKSAANDILHLFKKKAKSEQSNAKSSSSSIKESKKMKTLFGKKLGFKS
B2: GST-Rng10(751–950) (domain or fragment)
chain: SNSKAPAIEETTTTKVEVVAAHDAVSISSNSSTHKSHSEPLNRDELEVAALSRGSLPEPPKPNKQIVVQEEDQRDTLSLKTSTTGLSSHSKSAENNSTQQSTTSPSINSGASADAVSSGISKKADNSETNLNYFATLDAFVKSPLMSFDGLGELGSTDQRYNFFNQKIQEYSAYDSGLDNWIQFCLEKDGEAPKEAPPPP
B3: His6-Rga7(1–320) (domain or fragment)
chain: MLSAPSSSTTPASPPTSPPNTTSSDDFAVLKEPKVEAILNSELGLAILNDRIKDYLLTCKELAGFFKKRSILEEESGKNLQKLAKSYLETFQSKHHSPQSFSASVITSMEIHEQLANHSLTLQKTLSAFSDQVIEFHKNAERKRKSIKEYAKKQENAYLEAVMQMDKSKSRFKGAETEYNRALDNKNTGDSQKKVGFFKPKSNAQLTKLEDEARLKAENAESDMHSKIENAQNVQKQLLCIHRPNYIKQFFSLQREIESSLIANYLRYTKLCESNTLLNGLTIRPQKPTPTNCGLQHALDNINANTDFVQYVLHASIKHE

Tests used:
His6-Rga7(1–320) = molecular target: B3; experiment: supernatant depletion assay
AUC = molecular target: the molecule itself; experiment: AUC

Binder: B1
- Kd (His6-Rga7(1–320)): 430 nM

Binder: B2
- Kd (His6-Rga7(1–320)): 690 nM

Binder: B3
- stoichiometry N (AUC): 2
